Our source for the Kd, koff and kon values is US20030008291A1 (RIKEN, published 2003).

For assay [1], the target named is T1, UvrA.
T1 construct: UvrA was the analyte in the BIAcore experiment
Kind of assay: SPR (BIAcore), His-tagged β domain immobilised on Ni-NTA sensor chip, UvrA injected, with ATP (+ ATP). (In general: Surface plasmon resonance follows binding to a sensor surface in real time, without labels.)

In assay [2] the target is T1, UvrA. Kind of assay: SPR (BIAcore), His-tagged β domain immobilised on Ni-NTA sensor chip, UvrA injected, without ATP (- ATP).

For orientation: Kd means the free concentration of one partner at which half of the binding sites on the other are occupied at equilibrium, for simple one-to-one binding. As usually defined, the koff is the rate constant with which the complex falls apart. One may read the kon as a measure of how fast the partners come together.

B1: UvrB-β (enzyme)
chain: RNLVVERGKPYPREVLLERLLELGYQRNDIDLSPGRFRAKGEVLEIFPAYETEPIRVELFGDEVERISQVHPVTGERLRELPGFVLFPA
In the assay with UvrA [1], B1 yielded an equilibrium dissociation constant (Kd) of 400 nM, a koff of 0.06 s⁻¹ and a kon of 150000 M⁻¹ s⁻¹. In the assay with UvrA [2], the equilibrium dissociation constant (Kd) amounted to 2600 nM, the koff worked out at 0.52 s⁻¹ and the kon is 200000 M⁻¹ s⁻¹.
